Source: US20160200782A1 (MOERAE MATRIX, published 2016)

T1: SGK(h) (human, UniProt O00141 60-431)
T1 sequence (looked up): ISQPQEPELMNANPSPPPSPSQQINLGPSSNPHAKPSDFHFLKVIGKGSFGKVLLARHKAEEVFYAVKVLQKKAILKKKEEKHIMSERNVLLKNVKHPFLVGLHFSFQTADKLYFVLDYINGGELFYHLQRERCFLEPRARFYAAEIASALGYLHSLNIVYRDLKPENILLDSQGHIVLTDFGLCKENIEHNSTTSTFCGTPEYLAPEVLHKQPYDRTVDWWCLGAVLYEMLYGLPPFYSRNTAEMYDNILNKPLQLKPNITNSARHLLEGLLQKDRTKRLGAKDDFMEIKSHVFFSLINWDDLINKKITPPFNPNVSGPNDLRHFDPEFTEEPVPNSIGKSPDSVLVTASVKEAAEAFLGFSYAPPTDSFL

T2: PKCζ(h) (human, UniProt Q05513 1-592)
T2 sequence (looked up): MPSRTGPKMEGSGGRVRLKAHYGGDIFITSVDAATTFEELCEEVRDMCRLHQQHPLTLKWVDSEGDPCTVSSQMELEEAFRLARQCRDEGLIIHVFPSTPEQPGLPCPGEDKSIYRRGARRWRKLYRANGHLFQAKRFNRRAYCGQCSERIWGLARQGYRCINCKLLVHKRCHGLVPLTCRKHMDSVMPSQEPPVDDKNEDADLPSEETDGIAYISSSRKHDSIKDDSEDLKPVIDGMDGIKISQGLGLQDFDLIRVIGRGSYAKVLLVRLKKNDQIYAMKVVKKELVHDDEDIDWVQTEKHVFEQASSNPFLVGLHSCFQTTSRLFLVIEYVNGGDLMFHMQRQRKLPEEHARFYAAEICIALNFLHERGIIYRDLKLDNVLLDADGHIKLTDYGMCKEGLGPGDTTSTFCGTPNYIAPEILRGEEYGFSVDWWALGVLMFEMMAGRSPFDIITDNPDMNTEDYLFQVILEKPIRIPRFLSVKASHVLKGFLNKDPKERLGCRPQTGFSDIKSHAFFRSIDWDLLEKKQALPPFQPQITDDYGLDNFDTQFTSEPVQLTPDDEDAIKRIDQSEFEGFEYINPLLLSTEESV

T3: Aurora-A(h) (human, UniProt O14965 1-403)
T3 sequence (looked up): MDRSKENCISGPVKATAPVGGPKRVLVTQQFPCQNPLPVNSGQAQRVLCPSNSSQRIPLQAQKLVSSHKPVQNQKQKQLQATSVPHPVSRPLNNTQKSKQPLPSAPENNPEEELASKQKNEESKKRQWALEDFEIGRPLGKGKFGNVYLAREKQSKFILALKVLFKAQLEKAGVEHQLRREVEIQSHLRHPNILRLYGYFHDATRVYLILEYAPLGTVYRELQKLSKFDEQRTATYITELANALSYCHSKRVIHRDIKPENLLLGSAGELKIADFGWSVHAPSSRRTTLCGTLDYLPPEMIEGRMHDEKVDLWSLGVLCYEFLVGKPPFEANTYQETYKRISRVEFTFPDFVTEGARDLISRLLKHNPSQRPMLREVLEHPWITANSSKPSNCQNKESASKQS

T4: MKK6(h) (human, UniProt P52564 1-334, limits assumed)
T4 sequence (looked up): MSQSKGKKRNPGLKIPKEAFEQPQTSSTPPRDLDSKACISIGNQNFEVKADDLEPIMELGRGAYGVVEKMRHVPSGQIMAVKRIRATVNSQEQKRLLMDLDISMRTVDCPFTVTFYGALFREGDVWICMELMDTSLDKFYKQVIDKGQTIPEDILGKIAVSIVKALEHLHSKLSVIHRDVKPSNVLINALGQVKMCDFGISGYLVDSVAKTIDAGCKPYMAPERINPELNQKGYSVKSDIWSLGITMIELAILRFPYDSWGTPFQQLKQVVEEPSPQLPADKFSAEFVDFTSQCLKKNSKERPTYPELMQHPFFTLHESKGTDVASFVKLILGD


How the values were obtained:
Assay in all cases: cell-based or functional assay
Aurora-B(h) = Aurora-B(h) (human, UniProt Q96GD4 1-344)
WNK2(h) = WNK2(h) (human, UniProt Q9Y3S1 166-489, limits assumed)
ErbB4(h) = ErbB4(h) (human, UniProt Q15303 676-1308, limits assumed)
BTK(h) = BTK(h) (human, UniProt Q06187 1-659)
DAPK2(h) = DAPK2(h) (human, UniProt Q9UIK4 1-370, limits assumed)
SGK(h) = molecular target: T1, SGK(h)
NEK7(h) = NEK7(h) (human, UniProt Q8TDX7 1-302)
PKCζ(h) = molecular target: T2, PKCζ(h)
SAPK2b(h) = SAPK2b(h) (human, UniProt Q15759 1-364)
Aurora-A(h) = molecular target: T3, Aurora-A(h)
MKK6(h) = molecular target: T4, MKK6(h)
CDK1/cyclinB(h) = CDK1/cyclinB(h) (human, UniProt P06493 1-297; P06493 1-297)
PDGFRβ(h) = PDGFRβ(h) (human, UniProt P09619 557-1106, limits assumed)
WNK3(h) = WNK3(h) (human, UniProt Q9BYP7 1-434, limits assumed)
ROCK-I(h) = ROCK-I(h) (human, UniProt Q13464 17-535)
Plk3(h) = Plk3(h) (human, UniProt Q9H4B4 1-646, limits assumed)
Plk3(h), sequence (Q9H4B4 whole entry): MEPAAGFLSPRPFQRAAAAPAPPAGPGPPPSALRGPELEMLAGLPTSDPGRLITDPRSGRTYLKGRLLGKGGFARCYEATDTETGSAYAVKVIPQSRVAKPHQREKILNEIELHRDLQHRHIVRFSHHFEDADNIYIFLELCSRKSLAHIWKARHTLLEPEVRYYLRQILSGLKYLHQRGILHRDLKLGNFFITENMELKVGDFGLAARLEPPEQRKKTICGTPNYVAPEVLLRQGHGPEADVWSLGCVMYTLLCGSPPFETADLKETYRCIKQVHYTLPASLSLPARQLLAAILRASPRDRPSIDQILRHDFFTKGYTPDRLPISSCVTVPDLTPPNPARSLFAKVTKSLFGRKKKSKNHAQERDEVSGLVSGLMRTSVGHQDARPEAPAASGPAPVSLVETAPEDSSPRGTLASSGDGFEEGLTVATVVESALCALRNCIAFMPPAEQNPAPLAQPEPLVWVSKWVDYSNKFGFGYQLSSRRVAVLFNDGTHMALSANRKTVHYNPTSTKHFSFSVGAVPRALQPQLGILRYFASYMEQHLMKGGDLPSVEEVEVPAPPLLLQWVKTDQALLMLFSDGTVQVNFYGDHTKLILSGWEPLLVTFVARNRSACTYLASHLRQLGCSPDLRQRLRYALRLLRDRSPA

DAPK2(h), sequence (Q9UIK4 whole entry): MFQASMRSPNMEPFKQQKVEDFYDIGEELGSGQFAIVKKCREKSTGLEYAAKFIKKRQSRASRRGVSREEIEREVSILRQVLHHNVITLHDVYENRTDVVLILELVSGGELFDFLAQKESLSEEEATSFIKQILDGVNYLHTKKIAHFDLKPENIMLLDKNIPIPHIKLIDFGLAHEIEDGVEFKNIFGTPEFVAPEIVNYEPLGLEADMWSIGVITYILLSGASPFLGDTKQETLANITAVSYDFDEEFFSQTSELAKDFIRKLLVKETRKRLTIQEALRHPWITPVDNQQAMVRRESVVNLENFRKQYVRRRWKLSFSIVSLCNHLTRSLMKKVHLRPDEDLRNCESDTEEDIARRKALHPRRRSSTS
ROCK-I(h), sequence (Q13464 17-535 limits assumed): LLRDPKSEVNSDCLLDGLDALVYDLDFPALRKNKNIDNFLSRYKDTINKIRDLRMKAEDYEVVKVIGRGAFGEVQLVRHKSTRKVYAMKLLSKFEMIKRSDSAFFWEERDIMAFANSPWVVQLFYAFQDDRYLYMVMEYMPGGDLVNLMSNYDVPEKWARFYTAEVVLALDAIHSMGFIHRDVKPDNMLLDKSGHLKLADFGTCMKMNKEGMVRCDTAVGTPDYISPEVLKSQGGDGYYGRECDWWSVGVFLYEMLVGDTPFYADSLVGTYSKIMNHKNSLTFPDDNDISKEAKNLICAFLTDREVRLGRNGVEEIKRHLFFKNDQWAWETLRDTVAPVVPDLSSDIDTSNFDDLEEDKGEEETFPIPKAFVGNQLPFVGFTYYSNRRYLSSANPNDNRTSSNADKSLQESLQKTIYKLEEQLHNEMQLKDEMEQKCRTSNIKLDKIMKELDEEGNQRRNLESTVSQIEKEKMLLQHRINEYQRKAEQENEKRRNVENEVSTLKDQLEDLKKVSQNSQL
BTK(h), sequence (Q06187 whole entry): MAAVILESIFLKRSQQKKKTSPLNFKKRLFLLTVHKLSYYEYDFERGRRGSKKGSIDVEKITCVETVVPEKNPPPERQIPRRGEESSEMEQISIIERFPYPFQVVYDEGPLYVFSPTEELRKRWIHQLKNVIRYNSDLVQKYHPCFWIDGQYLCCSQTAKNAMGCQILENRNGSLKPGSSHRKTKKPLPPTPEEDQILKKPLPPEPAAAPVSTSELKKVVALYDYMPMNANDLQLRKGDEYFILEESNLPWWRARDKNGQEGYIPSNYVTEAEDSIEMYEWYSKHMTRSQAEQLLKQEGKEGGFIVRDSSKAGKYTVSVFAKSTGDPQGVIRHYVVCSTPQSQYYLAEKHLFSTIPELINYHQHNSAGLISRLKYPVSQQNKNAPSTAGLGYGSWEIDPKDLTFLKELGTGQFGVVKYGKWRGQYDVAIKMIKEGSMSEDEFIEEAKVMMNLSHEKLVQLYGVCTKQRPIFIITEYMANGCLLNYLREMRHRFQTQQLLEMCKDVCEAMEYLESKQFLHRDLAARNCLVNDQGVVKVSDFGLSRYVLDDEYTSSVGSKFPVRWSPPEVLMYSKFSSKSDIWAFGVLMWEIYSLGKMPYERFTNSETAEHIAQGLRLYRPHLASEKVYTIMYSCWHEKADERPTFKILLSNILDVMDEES
SAPK2b(h), sequence (Q15759 whole entry): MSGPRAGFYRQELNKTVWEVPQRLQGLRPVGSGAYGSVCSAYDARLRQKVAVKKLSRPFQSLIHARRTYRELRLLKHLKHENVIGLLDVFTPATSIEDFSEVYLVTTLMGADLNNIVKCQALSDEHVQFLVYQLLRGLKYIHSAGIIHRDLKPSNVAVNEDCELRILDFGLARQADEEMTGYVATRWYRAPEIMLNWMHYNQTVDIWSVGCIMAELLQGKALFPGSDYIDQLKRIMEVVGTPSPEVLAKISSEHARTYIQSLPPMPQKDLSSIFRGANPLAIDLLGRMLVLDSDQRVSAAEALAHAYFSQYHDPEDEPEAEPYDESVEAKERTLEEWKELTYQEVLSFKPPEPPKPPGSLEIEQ
WNK3(h), sequence (Q9BYP7 1-434 limits assumed): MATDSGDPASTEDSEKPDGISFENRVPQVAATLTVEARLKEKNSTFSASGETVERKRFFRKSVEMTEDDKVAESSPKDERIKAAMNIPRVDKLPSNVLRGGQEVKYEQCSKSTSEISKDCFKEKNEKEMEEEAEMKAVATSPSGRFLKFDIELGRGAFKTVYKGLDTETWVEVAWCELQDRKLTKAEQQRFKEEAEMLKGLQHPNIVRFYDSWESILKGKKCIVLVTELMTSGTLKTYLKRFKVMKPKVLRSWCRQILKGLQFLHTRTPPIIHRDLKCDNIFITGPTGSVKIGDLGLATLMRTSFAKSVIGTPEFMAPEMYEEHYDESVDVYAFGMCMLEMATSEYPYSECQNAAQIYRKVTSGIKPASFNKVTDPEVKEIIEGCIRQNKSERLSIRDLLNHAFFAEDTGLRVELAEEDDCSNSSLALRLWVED
Aurora-B(h), sequence (Q96GD4 whole entry): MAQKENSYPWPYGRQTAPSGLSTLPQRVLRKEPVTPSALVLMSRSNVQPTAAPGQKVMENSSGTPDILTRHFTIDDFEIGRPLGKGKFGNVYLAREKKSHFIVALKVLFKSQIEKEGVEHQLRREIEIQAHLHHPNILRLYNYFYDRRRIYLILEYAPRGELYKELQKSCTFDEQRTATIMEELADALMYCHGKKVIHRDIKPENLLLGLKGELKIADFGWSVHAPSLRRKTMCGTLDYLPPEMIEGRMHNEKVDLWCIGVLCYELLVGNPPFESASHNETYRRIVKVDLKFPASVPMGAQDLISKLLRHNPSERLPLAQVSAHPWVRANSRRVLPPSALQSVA
PDGFRβ(h), sequence (P09619 557-1106 limits assumed): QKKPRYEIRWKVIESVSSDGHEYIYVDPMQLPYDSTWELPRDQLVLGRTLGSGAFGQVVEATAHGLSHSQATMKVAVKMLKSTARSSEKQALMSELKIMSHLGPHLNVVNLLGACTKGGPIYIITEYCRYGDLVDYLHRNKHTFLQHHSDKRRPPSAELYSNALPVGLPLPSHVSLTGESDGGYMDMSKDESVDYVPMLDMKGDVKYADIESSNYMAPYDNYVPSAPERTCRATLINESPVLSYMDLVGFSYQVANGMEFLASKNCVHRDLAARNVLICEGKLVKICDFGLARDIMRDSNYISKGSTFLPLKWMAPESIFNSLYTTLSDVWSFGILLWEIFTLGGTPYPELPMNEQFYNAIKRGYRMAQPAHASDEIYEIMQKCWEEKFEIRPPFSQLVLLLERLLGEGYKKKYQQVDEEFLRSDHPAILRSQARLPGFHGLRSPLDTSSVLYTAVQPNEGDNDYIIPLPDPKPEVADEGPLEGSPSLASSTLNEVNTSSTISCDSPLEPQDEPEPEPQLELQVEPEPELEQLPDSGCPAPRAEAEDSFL
CDK1/cyclinB(h), sequence (P06493 whole entry, chain 1 of 2): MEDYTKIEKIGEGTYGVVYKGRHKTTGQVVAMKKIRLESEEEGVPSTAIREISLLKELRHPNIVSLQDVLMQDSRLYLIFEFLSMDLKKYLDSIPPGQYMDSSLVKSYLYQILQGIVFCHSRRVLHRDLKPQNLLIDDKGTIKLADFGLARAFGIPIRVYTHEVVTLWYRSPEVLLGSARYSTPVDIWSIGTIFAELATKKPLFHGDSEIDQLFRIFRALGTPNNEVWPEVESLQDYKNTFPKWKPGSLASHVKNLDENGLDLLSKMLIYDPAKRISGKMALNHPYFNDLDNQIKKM
CDK1/cyclinB(h), sequence (P06493 whole entry, chain 2 of 2): as the sequence (P06493 whole entry, chain 1 of 2) above
NEK7(h), sequence (Q8TDX7 whole entry): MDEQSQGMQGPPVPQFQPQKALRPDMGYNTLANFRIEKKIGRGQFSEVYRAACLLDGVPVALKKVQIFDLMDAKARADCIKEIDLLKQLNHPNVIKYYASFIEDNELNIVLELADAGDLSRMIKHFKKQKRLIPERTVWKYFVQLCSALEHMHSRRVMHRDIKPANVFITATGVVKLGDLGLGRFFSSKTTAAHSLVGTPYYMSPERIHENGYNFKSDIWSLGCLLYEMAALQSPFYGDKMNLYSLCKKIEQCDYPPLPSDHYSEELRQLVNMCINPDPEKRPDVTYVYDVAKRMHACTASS

% activity (Aurora-B(h)) | % activity (WNK2(h)) | % activity (ErbB4(h)) | % activity (BTK(h)) | % activity (DAPK2(h)) | % activity (SGK(h)) | % activity (NEK7(h)) | % activity (PKCζ(h)) | % activity (SAPK2b(h)) | % activity (Aurora-A(h)) | % activity (MKK6(h)) | % activity (CDK1/cyclinB(h)) | % activity (PDGFRβ(h)) | % activity (WNK3(h)) | % activity (ROCK-I(h)) | % activity (Plk3(h)) | Binder
150% | 54% | 0% | 94% | 16% | 54% | 87% | 75% | 82% | 119% | 44% | 74% | 53% | 74% | 73% | 129% | KAFAKLAARLYRKALARQLGVAA [MMI-0400]
128% | 64% | 40% | 102% | 32% | 48% | 84% | 81% | 81% | 92% | 48% | 73% | 81% | 77% | 79% | 127% | FAKLAARLYRKALARQLGVAA [MMI-0300]
